This note sets out measurements from the supplement of paper PMC5998384.

The subject of data set [1] is HeLa Kyoto. Briefly: melting temperature (median over replicates), in situ; higher = more thermally stable.
The subject of data set [2] is HeLa Kyoto. Briefly: solubility change mitosis vs G1/S (difference of NP-40 vs SDS log2 ratios) (log2 ratio difference); higher = more soluble in mitosis.
Data set [3] has as its system HeLa Kyoto. Briefly: solubility in G1/S (NP-40 vs SDS abundance) (log2 ratio); higher = more soluble. As to conditions: cell cycle stage: G1/S.
The test system of data set [4] is HeLa Kyoto. Briefly: thermal stability score vs G1/S (z-score of summed log2 fold changes over temperatures); higher = more thermally stable than in G1/S.
Setting [5] is: cell cycle stage: early G1 (4.5 h after nocodazole release).
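For melting temperature (median over replicates), in situ in this document: HeLa Kyoto cells synchronized by double thymidine or nocodazole block, proteins quantified by TMT10plex mass spectrometry, three independent biological replicates.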
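For solubility change mitosis vs G1/S (difference of NP-40 vs SDS log2 ratios) in this document: synchronized HeLa Kyoto cells (double thymidine block for G1/S, nocodazole release for mitosis), protein amounts in NP-40 versus SDS lysates quantified by mass spectrometry, three biological replicates.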
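For solubility in G1/S (NP-40 vs SDS abundance) in this document: HeLa Kyoto cells arrested at G1/S by double thymidine block, proteins quantified by TMT10plex mass spectrometry in mild NP-40 versus SDS extracts, three biological replicates.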
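For thermal stability score vs G1/S (z-score of summed log2 fold changes over temperatures) in this document: synchronized HeLa Kyoto cells, proteins quantified by TMT10plex mass spectrometry, three biological replicates, mitosis taken 0.5 h after nocodazole release, G1/S directly after double thymidine block.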

Regarding “MATANFGKIQIGIYVEIKRSDGRIHQAMVTSLNEDNESVTVEWIENGDTKGKEIDLESIFSLNPDLVPDEEIEPSPETPPPPASSAKVNKIVKNRRTVASIKNDPPSRDNRVVGSARARPSQFPEQSSSAQQNGSVSDISPVQAAKKEFGPPSRRKSNCVKEVEKLQEKREKRRLQQQELREKRAQDVDATNPNYEIMCMIRDFRGSLDYRPLTTADPIDEHRICVCVRKRPLNKKETQMKDLDVITIPSKDVVMVHEPKQKVDLTRYLENQTFRFDYAFDDSAPNEMVYRFTARPLVETIFERGMATCFAYGQTGSGKTHTMGGDFSGKNQDCSKGIYALAARDVFLMLKKPNYKKLELQVYATFFEIYSGKVFDLLNRKTKLRVLEDGKQQVQVVGLQEREVKCVEDVLKLIDIGNSCRTSGQTSANAHSSRSHAVFQIILRRKGKLHGKFSLIDLAGNERGADTSSADRQTRLEGAEINKSLLALKECIRALGRNKPHTPFRASKLTQVLRDSFIGENSRTCMIATISPGMASCENTLNTLRYANRVKELTVDPTAAGDVRPIMHHPPNQIDDLETQWGVGSSPQRDDLKLLCEQNEEEVSPQLFTFHEAVSQMVEMEEQVVEDHRAVFQESIRWLEDEKALLEMTEEVDYDVDSYATQLEAILEQKIDILTELRDKVKSFRAALQEEEQASKQINPKRPRAL [KIF2A]”, the results for the melting temperature in the data set on HeLa Kyoto [1] (cell cycle stage: G1/S) and in the data set on HeLa Kyoto [1] (cell cycle stage: mitosis) were 50 °C and 50.1 °C, respectively. Besides, the “solubility change mitosis (log2)” value in the data set with HeLa Kyoto [2] was -0.0102. Further, the “solubility in G1/S (log2)” value in the data set with HeLa Kyoto [3] was -0.149. Besides, the thermal stability score in the data set with HeLa Kyoto [4] (setting [5]) came to 1.7; with HeLa Kyoto [4] (cell cycle stage: mitosis) it was 1.64.
With “MATATEQWVLVEMVQALYEAPAYHLILEGILILWIIRLLFSKTYKLQERSDLTVKEKEELIEEWQPEPLVPPVPKDHPALNYNIVSGPPSHKTVVNGKECINFASFNFLGLLDNPRVKAAALASLKKYGVGTCGPRGFYGTFDVHLDLEDRLAKFMKTEEAIIYSYGFATIASAIPAYSKRGDIVFVDRAACFAIQKGLQASRSDIKLFKHNDMADLERLLKEQEIEDQKNPRKARVTRRFIVVEGLYMNTGTICPLPELVKLKYKYKARIFLEESLSFGVLGEHGRGVTEHYGINIDDIDLISANMENALASIGGFCCGRSFVIDHQRLSGQGYCFSASLPPLLAAAAIEALNIMEENPGIFAVLKEKCGQIHKALQGISGLKVVGESLSPAFHLQLEESTGSREQDVRLLQEIVDQCMNRSIALTQARYLEKEEKCLPPPSIRVVVTVEQTEEELERAASTIKEVAQAVLL [SPTLC1]”, the results for the melting temperature with HeLa Kyoto [1] (cell cycle stage: G1/S) and with HeLa Kyoto [1] (cell cycle stage: mitosis) were 51.5 °C and 52 °C, respectively. In addition, the “solubility change mitosis (log2)” value in the data set on HeLa Kyoto [2] was -0.06. Moreover, the “solubility in G1/S (log2)” value in the data set on HeLa Kyoto [3] was -0.0163. Moreover, the figures for the thermal stability score in the data set with HeLa Kyoto [4] (setting [5]) and with HeLa Kyoto [4] (cell cycle stage: mitosis) were 0.272 and -0.0699, respectively.
In the case of “MATATIALQVNGQQGGGSEPAAAAAVVAAGDKWKPPQGTDSIKMENGQSTAAKLGLPPLTPEQQEALQKAKKYAMEQSIKSVLVKQTIAHQQQQLTNLQMAAVTMGFGDPLSPLQSMAAQRQRALAIMCRVYVGSIYYELGEDTIRQAFAPFGPIKSIDMSWDSVTMKHKGFAFVEYEVPEAAQLALEQMNSVMLGGRNIKVGRPSNIGQAQPIIDQLAEEARAFNRIYVASVHQDLSDDDIKSVFEAFGKIKSCTLARDPTTGKHKGYGFIEYEKAQSSQDAVSSMNLFDLGGQYLRVGKAVTPPMPLLTPATPGGLPPAAAVAAAAATAKITAQEAVAGAAVLGTLGTPGLVSPALTLAQPLGTLPQAVMAAQAPGVITGVTPARPPIPVTIPSVGVVNPILASPPTLGLLEPKKEKEEEELFPESERPEMLSEQEHMSISGSSARHMVMQKLLRKQESTVMVLRNMVDPKDIDDDLEGEVTEECGKFGAVNRVIIYQEKQGEEEDAEIIVKIFVEFSIASETHKAIQALNGRWFAGRKVVAEVYDQERFDNSDLSA [PUF60]”, the values for the melting temperature in the data set with HeLa Kyoto [1] (cell cycle stage: G1/S) and with HeLa Kyoto [1] (cell cycle stage: mitosis) were 49.1 °C and 50.6 °C, respectively. The “solubility change mitosis (log2)” value with HeLa Kyoto [2] is 0.0253. Moreover, the “solubility in G1/S (log2)” value in the data set with HeLa Kyoto [3] turned out to be 0.0524. In addition, the thermal stability score in the data set on HeLa Kyoto [4] (setting [5]) worked out at 1.71; with HeLa Kyoto [4] (cell cycle stage: mitosis), 5.96.
In the case of “MATCIWLRSCGARRLGSTFPGCRLRPRAGGLVPASGPAPGPAQLRCYAGRLAGLSAALLRTDSFVGGRWLPAAATFPVQDPASGAALGMVADCGVREARAAVRAAYEAFCRWREVSAKERSSLLRKWYNLMIQNKDDLARIITAESGKPLKEAHGEILYSAFFLEWFSEEARRVYGDIIHTPAKDRRALVLKQPIGVAAVITPWNFPSAMITRKVGAALAAGCTVVVKPAEDTPFSALALAELASQAGIPSGVYNVIPCSRKNAKEVGEAICTDPLVSKISFTGSTTTGKILLHHAANSVKRVSMELGGLAPFIVFDSANVDQAVAGAMASKFRNTGQTCVCSNQFLVQRGIHDAFVKAFAEAMKKNLRVGNGFEEGTTQGPLINEKAVEKVEKQVNDAVSKGATVVTGGKRHQLGKNFFEPTLLCNVTQDMLCTHEETFGPLAPVIKFDTEEEAIAIANAADVGLAGYFYSQDPAQIWRVAEQLEVGMVGVNEGLISSVECPFGGVKQSGLGREGSKYGIDEYLELKYVCYGGL [ALDH5A1]”, the results for the melting temperature in the data set with HeLa Kyoto [1] (cell cycle stage: G1/S) and with HeLa Kyoto [1] (cell cycle stage: mitosis) were 56.1 °C and 54.8 °C, respectively. Besides, the “solubility change mitosis (log2)” value in the data set with HeLa Kyoto [2] was -0.0409. In the data set with HeLa Kyoto [3], the “solubility in G1/S (log2)” value is 0.125. In addition, the thermal stability score with HeLa Kyoto [4] (setting [5]) stood at 1.08; with HeLa Kyoto [4] (cell cycle stage: mitosis), 0.0757.
Take “MATDTSQGELVHPKALPLIVGAQLIHADKLGEKVEDSTMPIRRTVNSTRETPPKSKLAEGEEEKPEPDISSEESVSTVEEQENETPPATSSEAEQPKGEPENEEKEENKSSEETKKDEKDQSKEKEKKVKKTIPSWATLSASQLARAQKQTPMASSPRPKMDAILTEAIKACFQKSGASVVAIRKYIIHKYPSLELERRGYLLKQALKRELNRGVIKQVKGKGASGSFVVVQKSRKTPQKSRNRKNRSSAVDPEPQVKLEDVLPLAFTRLCEPKEASYSLIRKYVSQYYPKLRVDIRPQLLKNALQRAVERGQLEQITGKGASGTFQLKKSGEKPLLGGSLMEYAILSAIAAMNEPKTCSTTALKKYVLENHPGTNSNYQMHLLKKTLQKCEKNGWMEQISGKGFSGTFQLCFPYYPSPGVLFPKKEPDDSRDEDEDEDESSEEDSEDEEPPPKRRLQKKTPAKSPGKAASVKQRGSKPAPKVSAAQRGKARPLPKKAPPKAKTPAKKTRPSSTVIKKPSGGSSKKPATSARKEVKLPGKGKSTMKKSFRVKK [HP1BP3]”: the melting temperature in the data set on HeLa Kyoto [1] (cell cycle stage: G1/S) amounted to 51.8 °C; in the data set on HeLa Kyoto [1] (cell cycle stage: mitosis), 51.5 °C. For the same sequence, the “solubility change mitosis (log2)” value with HeLa Kyoto [2] was 0.474. Besides, the “solubility in G1/S (log2)” value in the data set on HeLa Kyoto [3] was -1.01. The thermal stability score in the data set with HeLa Kyoto [4] (setting [5]) worked out at 0.824; in the data set on HeLa Kyoto [4] (cell cycle stage: mitosis), 0.423.
